This is an account of results in patent CN117946265A (HISUN BIO PHARMACEUTICAL CO LTD; ZHEJIANG BORUI BIOLOGICAL …, dated 2024).

Values joined by “and” are separate entries in the source; they are usually repeats but may differ in a detail not shown here. Equal values may be shown once.

Test [1] deals with T1, 人CX3CL1胞外区蛋白 CX3CL1(Q25-Q341)-6xHis (human, UniProt P78423 25-341).
T1 sequence: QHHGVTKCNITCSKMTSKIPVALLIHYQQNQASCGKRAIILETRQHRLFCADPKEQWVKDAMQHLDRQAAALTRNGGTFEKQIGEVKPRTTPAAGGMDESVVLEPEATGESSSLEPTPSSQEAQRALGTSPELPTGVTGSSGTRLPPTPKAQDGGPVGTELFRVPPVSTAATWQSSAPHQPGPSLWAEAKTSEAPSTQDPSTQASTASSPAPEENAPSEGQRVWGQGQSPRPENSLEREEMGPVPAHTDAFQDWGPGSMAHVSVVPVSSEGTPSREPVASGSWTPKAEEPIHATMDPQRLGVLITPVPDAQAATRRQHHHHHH
As to the kind of experiment: cell-based or functional assay.

Test [2] addresses T1, 人CX3CL1胞外区蛋白 CX3CL1(Q25-Q341)-6xHis. As to the kind of experiment: FACS competition: antibody blocks huCX3CL1-His binding to CHOK1-hCX3CR1 cells.
Test [3] has the same target. Description: cell-based or functional assay. The source holds these as a separate data set.

B1: C032 (antibody, human IgG2, kappa, V domains shown)
VH: EVQLQQSGPELVKPGASVKISCKASGYTFTDYYMNWVKQSHGKSLEWIGDINPNNGGTSYNQKFKGKATLTVDKSSSTAYMELRSLTSEDSAVYYCASSGNSYVDYWGQGTTLTVSS
VL: DIVMTQSHKFMSTSVGDRVSITCKASQDVSTAVAWYQQKPGQSPKLLIYWASTRHTGVPDRFTGSGSGTDYTLTISSVQAEDLALYYCQQHYSSPYTFGGGTKLEIKR
notes: Human-mouse chimeric antibody of mAb032 with human IgG2 constant region, expressed in CHOK1; also called 嵌合抗体C032
One may read the IC50 as the point on the concentration scale where inhibition reaches its midpoint. A low value points to greater potency. On to B1, for which the “抑制细胞迁移活性 IC50” value in test [1] came to 2.49 nM. In test [2], this molecule displayed a half-maximal inhibitory concentration (IC50) of 0.731 nM. Further, in test [3], the “抑制cAMP活性 IC50” value turned out to be 3.4 nM and the “抑制cAMP活性 MAX” value came out at 95.8.

B2: mAb022 (antibody, V domains shown)
VH: EVQLQQSGPELVKPGASVKISCKASGYTFTDYYMNWVKQSHGKSLEWIGDINPNNGGTNYNQKFKGKATLTVDKSSSTAYMELRSLTSEDSAVFYCASSGNSYVDYWGQGTTLTVSS
VL: DIVMTQSHKFMSTSVGDRVNITCKASQDVSTAVAWYQQKPGQSPKLLIYWASTRHTGVPDRFTGSGSGTDYTLTISSVQAEDLALYYCQQHYSSPYTFGGGTKLEIK
notes: Murine monoclonal antibody purified from hybridoma supernatant; also called 15F7B2
B2: the “抑制细胞迁移活性 IC50” value in test [1] was found to be 7.19 nM. In test [2], the IC50 turned out to be 7.6 nM. Also, in test [3], the “抑制cAMP活性 IC50” value turned out to be 0.8 nM and the “抑制cAMP活性 MAX” value was 105.

B3: C022 (antibody, human IgG2, kappa, V domains shown)
VH: EVQLQQSGPELVKPGASVKISCKASGYTFTDYYMNWVKQSHGKSLEWIGDINPNNGGTNYNQKFKGKATLTVDKSSSTAYMELRSLTSEDSAVFYCASSGNSYVDYWGQGTTLTVSS
VL: DIVMTQSHKFMSTSVGDRVNITCKASQDVSTAVAWYQQKPGQSPKLLIYWASTRHTGVPDRFTGSGSGTDYTLTISSVQAEDLALYYCQQHYSSPYTFGGGTKLEIKR
notes: Human-mouse chimeric antibody of mAb022 with human IgG2 constant region, expressed in CHOK1; also called 嵌合抗体C022
Regarding B3, the half-maximal inhibitory concentration (IC50) in test [2] was 0.885 nM and 1.7 nM. Moreover, in test [3], the “抑制cAMP活性 IC50” value is 2.41 nM and 3.28 nM.

B4: C032QG (antibody, human IgG2, kappa, V domains shown)
VH: EVQLQQSGPELVKPGASVKISCKASGYTFTDYYMNWVKQSHGKSLEWIGDINPNQGGTSYNQKFKGKATLTVDKSSSTAYMELRSLTSEDSAVYYCASSGNSYVDYWGQGTTLTVSS
VL: DIVMTQSHKFMSTSVGDRVSITCKASQDVSTAVAWYQQKPGQSPKLLIYWASTRHTGVPDRFTGSGSGTDYTLTISSVQAEDLALYYCQQHYSSPYTFGGGTKLEIKR
notes: Chimeric IgG2 mutant of C032 removing the NG hot spot of HCDR2 (NG to QG)
Turning to B4, the “抑制细胞迁移活性 IC50” value in test [1] was 2.27 nM. For the same molecule, in test [2], the IC50 is 0.811 nM and 1.49 nM. In test [3], the “抑制cAMP活性 IC50” value was found to be 3.96 nM and the “抑制cAMP活性 MAX” value came to 97.

B5: mAb032 (antibody, V domains shown)
VH: EVQLQQSGPELVKPGASVKISCKASGYTFTDYYMNWVKQSHGKSLEWIGDINPNNGGTSYNQKFKGKATLTVDKSSSTAYMELRSLTSEDSAVYYCASSGNSYVDYWGQGTTLTVSS
VL: DIVMTQSHKFMSTSVGDRVSITCKASQDVSTAVAWYQQKPGQSPKLLIYWASTRHTGVPDRFTGSGSGTDYTLTISSVQAEDLALYYCQQHYSSPYTFGGGTKLEIK
notes: Murine monoclonal antibody purified from hybridoma supernatant; also called 18H6F1
Take B5: the “抑制细胞迁移活性 IC50” value in test [1] was 8.72 nM. Further, the IC50 in test [2] was determined as 11.5 nM. In test [3], the “抑制cAMP活性 IC50” value was determined as 1.07 nM and the “抑制cAMP活性 MAX” value was 115.

B6: C032NA (antibody, human IgG2, kappa, V domains shown)
VH: EVQLQQSGPELVKPGASVKISCKASGYTFTDYYMNWVKQSHGKSLEWIGDINPNNAGTSYNQKFKGKATLTVDKSSSTAYMELRSLTSEDSAVYYCASSGNSYVDYWGQGTTLTVSS
VL: DIVMTQSHKFMSTSVGDRVSITCKASQDVSTAVAWYQQKPGQSPKLLIYWASTRHTGVPDRFTGSGSGTDYTLTISSVQAEDLALYYCQQHYSSPYTFGGGTKLEIKR
notes: Chimeric IgG2 mutant of C032 removing the NG hot spot of HCDR2 (NG to NA)
Turning to B6, the “抑制细胞迁移活性 IC50” value in test [1] was determined as 4 nM. In test [2], this molecule registered an IC50 of 0.865 nM. Also, in test [3], the “抑制cAMP活性 IC50” value was 3.63 nM and the “抑制cAMP活性 MAX” value came out at 92.5.

B7: Tab#1 (antibody, human IgG2, kappa, V domains shown)
VH: QVQLVQSGAEVKKPGASVKVSCKASGYTFTNYYIHWVKQAPGQGLEWIGWIYPGDGSPKFNERFKGRTTLTADKSTNTAYMLLSSLRSEDTAVYFCATGPTDGDYFDYWGQGTTVTVSS
VL: DIQMTQSPSSLSASVGDRVTITCRASGNIHNFLAWYQQKPGKAPKLLIYNEKTLADGVPSRFSGSGSGTDYTLTISSLQPEDFATYFCQQFWSTPYTFGGGTKVEIKR
notes: also called Quetmolimab; CX3CL1阳性对照抗体
On to B7, for which the “抑制细胞迁移活性 IC50” value in test [1] stood at 19 nM. Also, the half-inhibitory concentration (IC50) in test [2] stood at 1.96 nM. The “抑制cAMP活性 IC50” value in test [3] is 5.69 nM and 4.07 nM.

B8: HumAb032-4 (antibody, human IgG2, kappa, V domains shown)
VH: EVQLVQSGAEVKKPGATVKISCKASGYTFTDYYMNWVQQAPGKSLEWMGDINPNQGGTSYNQKFKGRVTLTVDKSTSTAYMELSSLRSEDTAVYYCASSGNSYVDYWGQGTTVTVSS
VL: DIQMTQSPSSLSASVGDRVTITCKASQDVSTAVAWYQQKPGKAPKLLLYWASTRHTGVPSRFSGSGSGTDYTLTISSLQPEDFATYYCQQHYSSPYTFGGGTKVEIKR
notes: Full-length humanized IgG2/kappa antibody
B8 came in with a half-maximal inhibitory concentration (IC50) in test [2] of 1.22 nM.

B9: HumAb022-4 (antibody, human IgG2, kappa, V domains shown)
VH: EVQLVQSGAEVKKPGATVKISCKASGYTFTDYYMNWVQQAPGKSLEWMGDINPNQGGTNYNQKFKGRVTLTVDKSTSTAYMELSSLRSEDTAVYYCASSGNSYVDYWGQGTTVTVSS
VL: DIQMTQSPSSLSASVGDRVTITCKASQDVSTAVAWYQQKPGKAPKLLLYWASTRHTGVPSRFSGSGSGTDYTLTISSLQPEDFATYYCQQHYSSPYTFGGGTKVEIKR
notes: as for B8
Turning to B9, the “抑制细胞迁移活性 IC50” value in test [1] amounted to 0.299 nM. Moreover, the IC50 in test [2] was determined as 1.27 nM. In test [3], the “抑制cAMP活性 IC50” value was found to be 2.69 nM and the “抑制cAMP活性 MAX” value turned out to be 100.

B10: mAb017 (antibody, V domains shown)
VH: QIQLVQSGPELKKPGETVKISCKASVYTFTEYAMHWVKQAPGKGFKWMGWINTNSGEPTYADDFKGRFAFSLETSASTAYLQINNLKNEDTATYFCGRGRVVGSFDYWGQGTTLTVSS
VL: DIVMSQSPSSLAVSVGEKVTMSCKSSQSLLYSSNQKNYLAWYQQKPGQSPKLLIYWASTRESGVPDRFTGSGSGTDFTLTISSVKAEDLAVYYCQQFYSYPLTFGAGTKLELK
notes: Murine monoclonal antibody purified from hybridoma supernatant; also called 36C7-1G2
Consider B10, for which the “抑制细胞迁移活性 IC50” value in test [1] was determined as 7.55 nM. In test [2], the IC50 came to 6.1 nM. Further, in test [3], the “抑制cAMP活性 IC50” value is 0.7 nM and the “抑制cAMP活性 MAX” value worked out at 100.
